Experimental data as given in patent US20230242657A1.

Tests used:
[1] = biological target: recombinant OX40-Fc protein (R & D, Cat 3388-OX) (human) (UniProt P43489); experiment: blocking ELISA: plate-coated OX40-Fc, serially diluted antibody, then OX40L at 50 ng/ml, bound OX40L detected
[2] = biological target: human OX40 on the cell surface (activated human T cells; Jurkat-OX40-NF-kB-Luc cells overexpressing human OX40) (human) (UniProt P43489); experiment: cell-based or functional assay
Sequence of human OX40 on the cell surface (activated human T cells; Jurkat-OX40-NF-kB-Luc cells overexpressing human OX40) (human) (P43489 29-277): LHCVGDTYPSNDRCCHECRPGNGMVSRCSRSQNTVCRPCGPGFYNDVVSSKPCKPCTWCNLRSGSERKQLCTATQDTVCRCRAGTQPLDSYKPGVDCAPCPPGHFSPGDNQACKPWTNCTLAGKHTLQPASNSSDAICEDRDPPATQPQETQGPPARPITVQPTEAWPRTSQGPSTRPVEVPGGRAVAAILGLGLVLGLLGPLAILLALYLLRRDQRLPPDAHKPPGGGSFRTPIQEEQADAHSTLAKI

Sequence of recombinant OX40-Fc protein (R & D, Cat 3388-OX) (human) (P43489 29-214): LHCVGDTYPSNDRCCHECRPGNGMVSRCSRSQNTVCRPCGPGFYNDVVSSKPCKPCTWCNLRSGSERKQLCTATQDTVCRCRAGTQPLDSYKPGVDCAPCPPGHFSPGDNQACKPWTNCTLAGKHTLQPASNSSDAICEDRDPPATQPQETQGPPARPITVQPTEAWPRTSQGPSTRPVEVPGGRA

B1: GBR830 (reference OX40 antagonist antibody) (antibody, INN chains, looked up, V domains shown)
VH: QVTLKESGPALVKPTQTLTLTCSFSGFSLSTSGMGVGWIRQPPGKALEWIAHIWWDDDKYYNTALKTRLTISKDTSKNQVVLTMTNMDPVDTATYYCARIDWDGFAYWGQGTLVTVSS
VL: EIVLTQSPATLSLSPGERATLSCRASSSVSYMHWYQQKPGQAPRPWIYATSNRATGIPARFSGSGSGTDYTLTISSLEPEDFAVYYCQQWSSNPWTFGQGTKVEIK
In the case of B1, the IC50 [1] is reported as 0.3 nM, the maximum inhibition rate [1] is reported as 50% and the IC50 of blocking the OX40L-mediated T cell activation (IFNy secretion) [2] is reported as 1.1 nM.
